B1: F-tractinopt–mCherry fusion [rat] / F-actin (rabbit skeletal muscle α-actin filaments) [rabbit] (parent)
chain 1: APRRSVGELRLLFEARAASAA
chain 2: not shown

Variants of: B1
Test: high-speed cosedimentation assay (SDS-PAGE densitometry)
Settings: with F-actin (rabbit skeletal muscle α-actin filaments) [rabbit]; 2 µM F-tractin-mCherry; high-speed sedimentation, 120,000 g; actin 0-40 µM

Kd [µM]	Variant
> 100	chain 1 F13A

Source: article PMC11809415, “Structure of the F-tractin–F-actin complex” (The Journal of Cell Biology, 2025)
